From article PMC4778762, “Acetylation of Lysine 201 Inhibits the DNA-Binding Ability of PhoP to Regulate Salmonella Virulence”
Numbering of substitutions follows the chain as printed.

T1: PhoP K201A K201A (Salmonella enterica serovar Typhimurium) (UniProt D0ZV90)
T1 sequence: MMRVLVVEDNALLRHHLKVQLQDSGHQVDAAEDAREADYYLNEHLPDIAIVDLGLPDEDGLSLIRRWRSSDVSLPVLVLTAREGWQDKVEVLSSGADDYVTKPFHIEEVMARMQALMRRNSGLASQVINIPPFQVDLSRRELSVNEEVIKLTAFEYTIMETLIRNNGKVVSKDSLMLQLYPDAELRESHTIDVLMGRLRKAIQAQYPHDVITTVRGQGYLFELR

T2: PhoP K201Q K201Q (Salmonella enterica serovar Typhimurium) (UniProt D0ZV90)
T2 sequence: T1 sequence with A201Q

T3: PhoP K201R K201R (Salmonella enterica serovar Typhimurium) (UniProt D0ZV90)
T3 sequence: T1 sequence with A201R

T4: PhoP WT (Salmonella enterica serovar Typhimurium) (UniProt D0ZV90)
T4 sequence: T1 sequence with A201K

B1: PhoP box of phoP promoter (dsDNA)
DNA 1: GGGGTCTGGTTTATTAACTGTTTATCCGGGG
DNA 2: CCCCGGATAAACAGTTAATAAACCAGACCCC

Columns and labels:
[1] = target: T1, PhoP K201A K201A (Salmonella enterica serovar Typhimurium); test: EMSA; conditions: EMSA: 25 mM Tris-HCl pH 8.0, 50 mM KCl, 0.5 mM EDTA, 10% glycerol, 37 C 30 min, gel at 4 C; SPR: Biacore 2000, streptavidin chip, buffer not given
[2] = target: T2, PhoP K201Q K201Q (Salmonella enterica serovar Typhimurium); test: EMSA; conditions: EMSA: 25 mM Tris-HCl pH 8.0, 50 mM KCl, 0.5 mM EDTA, 10% glycerol, 37 C 30 min, gel at 4 C; SPR: Biacore 2000, streptavidin chip, buffer not given
[3] = target: T3, PhoP K201R K201R (Salmonella enterica serovar Typhimurium); test: EMSA; conditions: EMSA: 25 mM Tris-HCl pH 8.0, 50 mM KCl, 0.5 mM EDTA, 10% glycerol, 37 C 30 min, gel at 4 C; SPR: Biacore 2000, streptavidin chip, buffer not given
[4] = target: T4, PhoP WT (Salmonella enterica serovar Typhimurium); test: EMSA; conditions: EMSA: 25 mM Tris-HCl pH 8.0, 50 mM KCl, 0.5 mM EDTA, 10% glycerol, 37 C 30 min, gel at 4 C; SPR: Biacore 2000, streptavidin chip, buffer not given
PhoP WT = PhoP WT (Salmonella enterica serovar Typhimurium, UniProt D0ZV90 1-224); test: SPR; 0.3-1 uM PhoP; response 2.3-fold (0.6 uM) and 4.0-fold (1 uM) of that at 0.3 uM; EMSA: 25 mM Tris-HCl pH 8.0, 50 mM KCl, 0.5 mM EDTA, 10% glycerol, 37 C 30 min, gel at 4 C; SPR: Biacore 2000, streptavidin chip, buffer not given; conditions: protein: recombinant; tags: C-terminal 6xHis; chain copies: 2; label: 5'-biotin on strand 1; blunt

Molecule	binding [1]	binding [2]	binding [3]	binding [4]	binding result (PhoP WT)
ATCCTCTACAACCAGTACGCGCATCATCTCTTCTCCCTTGTGTTAACAATAAGAACAGTCTAGCGTTGATTATGGTGCTTTGGGGATAAACAGTTAATAAACCAGACAAATAGTCACCCTCTTTCTGAAGAAAAGAGGGTGAGGCAGGCATTATTTAAGTTCGTCGACCAGAGTCACAGCGCGA (double strand) [phoP promoter 184 bp]	binds more weakly	binds more weakly	binds	binds	–
B1	–	–	–	–	binds
